Reference: patent publication US20140087995A1 (published 2014)
Numbered stars: 1 amine (or outer) side, 2 acyl side, 3 side chain; on linkers, the order of the positions; unused ones are H or OH. Bridge positions count the residues as written; N and C are the ends. Side chains are listed from the residue outwards. Ends that are not written are not given here. * marks the point of attachment. C20 diacid = O=C(O)CCCCCCCCCCCCCCCCCCC(=O)*; γGlu = O=C(O)[C@H](CCC(=O)[*:2])N[*:1]; AEEA = NCCOCCOCC(=O)O

T1: human calcitonin receptor (human, UniProt P30988 25-474)
T1 sequence (looked up): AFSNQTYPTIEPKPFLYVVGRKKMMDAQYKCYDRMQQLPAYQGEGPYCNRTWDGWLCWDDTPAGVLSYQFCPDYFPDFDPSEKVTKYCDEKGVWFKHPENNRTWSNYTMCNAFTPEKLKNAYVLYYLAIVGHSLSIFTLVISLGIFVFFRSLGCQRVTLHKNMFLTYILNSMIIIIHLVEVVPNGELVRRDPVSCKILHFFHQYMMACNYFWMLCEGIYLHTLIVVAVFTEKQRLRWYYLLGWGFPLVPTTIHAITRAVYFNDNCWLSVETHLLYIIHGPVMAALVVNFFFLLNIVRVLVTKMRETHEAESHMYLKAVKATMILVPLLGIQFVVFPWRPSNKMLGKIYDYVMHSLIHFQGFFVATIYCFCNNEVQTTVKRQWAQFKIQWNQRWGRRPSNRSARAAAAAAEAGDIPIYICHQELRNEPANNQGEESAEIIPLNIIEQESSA

B1: N^ε1-[2-[2-[2-[[(4S)-4-carboxy-4-(19-carboxynonadecanoylamino)butanoyl]amino]ethoxy]ethoxy]acetyl]-[Arg17,Pro21,Pro27,Pro31,His35]-h-amylin (peptide)
peptide: K([AEEA-γGlu-C20 diacid])CNTATCATQRLANFLRHSSPNFGAIPSSTPVGSHTY-NH2
modifications: disulfide 2-7; N-terminus assumed
SMILES: CC[C@H](C)[C@H](NC(=O)[C@H](C)NC(=O)CNC(=O)[C@H](Cc1ccccc1)NC(=O)[C@H](CC(N)=O)NC(=O)[C@@H]1CCCN1C(=O)[C@H](CO)NC(=O)[C@H](CO)NC(=O)[C@H](Cc1c[nH]cn1)NC(=O)[C@H](CCCNC(=N)N)NC(=O)[C@H](CC(C)C)NC(=O)[C@H](Cc1ccccc1)NC(=O)[C@H](CC(N)=O)NC(=O)[C@H](C)NC(=O)[C@H](CC(C)C)NC(=O)[C@H](CCCNC(=N)N)NC(=O)[C@H](CCC(N)=O)NC(=O)[C@@H](NC(=O)[C@H](C)NC(=O)[C@@H]1CSSC[C@H](NC(=O)[C@@H](N)CCCCNC(=O)COCCOCCNC(=O)CC[C@H](NC(=O)CCCCCCCCCCCCCCCCCCC(=O)O)C(=O)O)C(=O)N[C@@H](CC(N)=O)C(=O)N[C@@H]([C@@H](C)O)C(=O)N[C@@H](C)C(=O)N[C@@H]([C@@H](C)O)C(=O)N1)[C@@H](C)O)C(=O)N1CCC[C@H]1C(=O)N[C@@H](CO)C(=O)N[C@@H](CO)C(=O)N[C@H](C(=O)N1CCC[C@H]1C(=O)N[C@H](C(=O)NCC(=O)N[C@@H](CO)C(=O)N[C@@H](Cc1c[nH]cn1)C(=O)N[C@H](C(=O)N[C@@H](Cc1ccc(O)cc1)C(N)=O)[C@@H](C)O)C(C)C)[C@@H](C)O
notes: analogue of human amylin; also called compound 57
B2: N^ε1-[2-[2-[2-[[(4S)-4-carboxy-4-(19-carboxynonadecanoylamino)butanoyl]amino]ethoxy]ethoxy]acetyl]-[His14,Arg17,Pro21,Pro27,Pro34]-h-amylin (peptide)
peptide: K([AEEA-γGlu-C20 diacid])CNTATCATQRLAHFLRHSSPNFGAIPSSTNVGPNTY-NH2
modifications: disulfide 2-7; N-terminus assumed
SMILES: CC[C@H](C)[C@H](NC(=O)[C@H](C)NC(=O)CNC(=O)[C@H](Cc1ccccc1)NC(=O)[C@H](CC(N)=O)NC(=O)[C@@H]1CCCN1C(=O)[C@H](CO)NC(=O)[C@H](CO)NC(=O)[C@H](Cc1c[nH]cn1)NC(=O)[C@H](CCCNC(=N)N)NC(=O)[C@H](CC(C)C)NC(=O)[C@H](Cc1ccccc1)NC(=O)[C@H](Cc1c[nH]cn1)NC(=O)[C@H](C)NC(=O)[C@H](CC(C)C)NC(=O)[C@H](CCCNC(=N)N)NC(=O)[C@H](CCC(N)=O)NC(=O)[C@@H](NC(=O)[C@H](C)NC(=O)[C@@H]1CSSC[C@H](NC(=O)[C@@H](N)CCCCNC(=O)COCCOCCNC(=O)CC[C@H](NC(=O)CCCCCCCCCCCCCCCCCCC(=O)O)C(=O)O)C(=O)N[C@@H](CC(N)=O)C(=O)N[C@@H]([C@@H](C)O)C(=O)N[C@@H](C)C(=O)N[C@@H]([C@@H](C)O)C(=O)N1)[C@@H](C)O)C(=O)N1CCC[C@H]1C(=O)N[C@@H](CO)C(=O)N[C@@H](CO)C(=O)N[C@H](C(=O)N[C@@H](CC(N)=O)C(=O)N[C@H](C(=O)NCC(=O)N1CCC[C@H]1C(=O)N[C@@H](CC(N)=O)C(=O)N[C@H](C(=O)N[C@@H](Cc1ccc(O)cc1)C(N)=O)[C@@H](C)O)C(C)C)[C@@H](C)O
notes: analogue of human amylin; also called compound 68
B3: N^ε1-[2-[2-[2-[[(4S)-4-carboxy-4-(19-carboxynonadecanoylamino)butanoyl]amino]ethoxy]ethoxy]acetyl]-[Arg17,Pro21,Pro27,Pro34,His35]-h-amylin (peptide)
peptide: K([AEEA-γGlu-C20 diacid])CNTATCATQRLANFLRHSSPNFGAIPSSTNVGPHTY-NH2
modifications: disulfide 2-7; N-terminus assumed
SMILES: CC[C@H](C)[C@H](NC(=O)[C@H](C)NC(=O)CNC(=O)[C@H](Cc1ccccc1)NC(=O)[C@H](CC(N)=O)NC(=O)[C@@H]1CCCN1C(=O)[C@H](CO)NC(=O)[C@H](CO)NC(=O)[C@H](Cc1c[nH]cn1)NC(=O)[C@H](CCCNC(=N)N)NC(=O)[C@H](CC(C)C)NC(=O)[C@H](Cc1ccccc1)NC(=O)[C@H](CC(N)=O)NC(=O)[C@H](C)NC(=O)[C@H](CC(C)C)NC(=O)[C@H](CCCNC(=N)N)NC(=O)[C@H](CCC(N)=O)NC(=O)[C@@H](NC(=O)[C@H](C)NC(=O)[C@@H]1CSSC[C@H](NC(=O)[C@@H](N)CCCCNC(=O)COCCOCCNC(=O)CC[C@H](NC(=O)CCCCCCCCCCCCCCCCCCC(=O)O)C(=O)O)C(=O)N[C@@H](CC(N)=O)C(=O)N[C@@H]([C@@H](C)O)C(=O)N[C@@H](C)C(=O)N[C@@H]([C@@H](C)O)C(=O)N1)[C@@H](C)O)C(=O)N1CCC[C@H]1C(=O)N[C@@H](CO)C(=O)N[C@@H](CO)C(=O)N[C@H](C(=O)N[C@@H](CC(N)=O)C(=O)N[C@H](C(=O)NCC(=O)N1CCC[C@H]1C(=O)N[C@@H](Cc1c[nH]cn1)C(=O)N[C@H](C(=O)N[C@@H](Cc1ccc(O)cc1)C(N)=O)[C@@H](C)O)C(C)C)[C@@H](C)O
notes: analogue of human amylin; also called compound 58
B4: N^ε1-[2-[2-[2-[[(4S)-4-carboxy-4-(19-carboxynonadecanoylamino)butanoyl]amino]ethoxy]ethoxy]acetyl]-[His14,Arg17,Pro21,Pro27,Pro31]-h-amylin (peptide)
peptide: K([AEEA-γGlu-C20 diacid])CNTATCATQRLAHFLRHSSPNFGAIPSSTPVGSNTY-NH2
modifications: disulfide 2-7; N-terminus assumed
SMILES: CC[C@H](C)[C@H](NC(=O)[C@H](C)NC(=O)CNC(=O)[C@H](Cc1ccccc1)NC(=O)[C@H](CC(N)=O)NC(=O)[C@@H]1CCCN1C(=O)[C@H](CO)NC(=O)[C@H](CO)NC(=O)[C@H](Cc1c[nH]cn1)NC(=O)[C@H](CCCNC(=N)N)NC(=O)[C@H](CC(C)C)NC(=O)[C@H](Cc1ccccc1)NC(=O)[C@H](Cc1c[nH]cn1)NC(=O)[C@H](C)NC(=O)[C@H](CC(C)C)NC(=O)[C@H](CCCNC(=N)N)NC(=O)[C@H](CCC(N)=O)NC(=O)[C@@H](NC(=O)[C@H](C)NC(=O)[C@@H]1CSSC[C@H](NC(=O)[C@@H](N)CCCCNC(=O)COCCOCCNC(=O)CC[C@H](NC(=O)CCCCCCCCCCCCCCCCCCC(=O)O)C(=O)O)C(=O)N[C@@H](CC(N)=O)C(=O)N[C@@H]([C@@H](C)O)C(=O)N[C@@H](C)C(=O)N[C@@H]([C@@H](C)O)C(=O)N1)[C@@H](C)O)C(=O)N1CCC[C@H]1C(=O)N[C@@H](CO)C(=O)N[C@@H](CO)C(=O)N[C@H](C(=O)N1CCC[C@H]1C(=O)N[C@H](C(=O)NCC(=O)N[C@@H](CO)C(=O)N[C@@H](CC(N)=O)C(=O)N[C@H](C(=O)N[C@@H](Cc1ccc(O)cc1)C(N)=O)[C@@H](C)O)C(C)C)[C@@H](C)O
notes: analogue of human amylin; also called compound 61
B5: N^ε1-[2-[2-[2-[[(4S)-4-carboxy-4-(19-carboxynonadecanoylamino)butanoyl]amino]ethoxy]ethoxy]acetyl]-[Arg17,Pro21,Pro27,Pro34]-h-amylin (peptide)
peptide: K([AEEA-γGlu-C20 diacid])CNTATCATQRLANFLRHSSPNFGAIPSSTNVGPNTY-NH2
modifications: disulfide 2-7; N-terminus assumed
SMILES: CC[C@H](C)[C@H](NC(=O)[C@H](C)NC(=O)CNC(=O)[C@H](Cc1ccccc1)NC(=O)[C@H](CC(N)=O)NC(=O)[C@@H]1CCCN1C(=O)[C@H](CO)NC(=O)[C@H](CO)NC(=O)[C@H](Cc1c[nH]cn1)NC(=O)[C@H](CCCNC(=N)N)NC(=O)[C@H](CC(C)C)NC(=O)[C@H](Cc1ccccc1)NC(=O)[C@H](CC(N)=O)NC(=O)[C@H](C)NC(=O)[C@H](CC(C)C)NC(=O)[C@H](CCCNC(=N)N)NC(=O)[C@H](CCC(N)=O)NC(=O)[C@@H](NC(=O)[C@H](C)NC(=O)[C@@H]1CSSC[C@H](NC(=O)[C@@H](N)CCCCNC(=O)COCCOCCNC(=O)CC[C@H](NC(=O)CCCCCCCCCCCCCCCCCCC(=O)O)C(=O)O)C(=O)N[C@@H](CC(N)=O)C(=O)N[C@@H]([C@@H](C)O)C(=O)N[C@@H](C)C(=O)N[C@@H]([C@@H](C)O)C(=O)N1)[C@@H](C)O)C(=O)N1CCC[C@H]1C(=O)N[C@@H](CO)C(=O)N[C@@H](CO)C(=O)N[C@H](C(=O)N[C@@H](CC(N)=O)C(=O)N[C@H](C(=O)NCC(=O)N1CCC[C@H]1C(=O)N[C@@H](CC(N)=O)C(=O)N[C@H](C(=O)N[C@@H](Cc1ccc(O)cc1)C(N)=O)[C@@H](C)O)C(C)C)[C@@H](C)O
notes: analogue of human amylin; also called compound 50
B6: N^ε1-[2-[2-[2-[[(4S)-4-carboxy-4-(19-carboxynonadecanoylamino)butanoyl]amino]ethoxy]ethoxy]acetyl]-[Arg17,Pro21,Pro27,Pro31]-h-amylin (peptide)
peptide: K([AEEA-γGlu-C20 diacid])CNTATCATQRLANFLRHSSPNFGAIPSSTPVGSNTY-NH2
modifications: disulfide 2-7; N-terminus assumed
SMILES: CC[C@H](C)[C@H](NC(=O)[C@H](C)NC(=O)CNC(=O)[C@H](Cc1ccccc1)NC(=O)[C@H](CC(N)=O)NC(=O)[C@@H]1CCCN1C(=O)[C@H](CO)NC(=O)[C@H](CO)NC(=O)[C@H](Cc1c[nH]cn1)NC(=O)[C@H](CCCNC(=N)N)NC(=O)[C@H](CC(C)C)NC(=O)[C@H](Cc1ccccc1)NC(=O)[C@H](CC(N)=O)NC(=O)[C@H](C)NC(=O)[C@H](CC(C)C)NC(=O)[C@H](CCCNC(=N)N)NC(=O)[C@H](CCC(N)=O)NC(=O)[C@@H](NC(=O)[C@H](C)NC(=O)[C@@H]1CSSC[C@H](NC(=O)[C@@H](N)CCCCNC(=O)COCCOCCNC(=O)CC[C@H](NC(=O)CCCCCCCCCCCCCCCCCCC(=O)O)C(=O)O)C(=O)N[C@@H](CC(N)=O)C(=O)N[C@@H]([C@@H](C)O)C(=O)N[C@@H](C)C(=O)N[C@@H]([C@@H](C)O)C(=O)N1)[C@@H](C)O)C(=O)N1CCC[C@H]1C(=O)N[C@@H](CO)C(=O)N[C@@H](CO)C(=O)N[C@H](C(=O)N1CCC[C@H]1C(=O)N[C@H](C(=O)NCC(=O)N[C@@H](CO)C(=O)N[C@@H](CC(N)=O)C(=O)N[C@H](C(=O)N[C@@H](Cc1ccc(O)cc1)C(N)=O)[C@@H](C)O)C(C)C)[C@@H](C)O
notes: analogue of human amylin; also called compound 49

Target: T1, human calcitonin receptor
Assay: cell-based or functional assay

hCTR funct. EC50 | Binder
3120 pM | B1
932 pM | B2
1030 pM | B3
554 pM | B4
662 pM | B5
2390 pM | B6
